B1: ETV1 (protein, UniProt P50549 1-477, looked up)
ETS translocation variant 1: MDGFYDQQVPYMVTNSQRGRNCNEKPTNVRKRKFINRDLAHDSEELFQDLSQLQETWLAEAQVPDNDEQFVPDYQAESLAFHGLPLKIKKEPHSPCSEISSACSQEQPFKFSYGEKCLYNVSAYDQKPQVGMRPSNPPTPSSTPVSPLHHASPNSTHTPKPDRAFPAHLPPSQSIPDSSYPMDHRFRRQLSEPCNSFPPLPTMPREGRPMYQRQMSEPNIPFPPQGFKQEYHDPVYEHNTMVGSAASQSFPPPLMIKQEPRDFAYDSEVPSCHSIYMRQEGFLAHPSRTEGCMFEKGPRQFYDDTCVVPEKFDGDIKQEPGMYREGPTYQRRGSLQLWQFLVALLDDPSNSHFIAWTGRGMEFKLIEPEEVARRWGIQKNRPAMNYDKLSRSLRYYYEKGIMQKVAGERYVYKFVCDPEALFSMAFPDNQRPLLKTDMERHINEEDTVPLSHFDESMAYMPEGGCCNPHPYNEGYVY
B2: ESRRA (protein, UniProt P11474 1-423, looked up)
Steroid hormone receptor ERR1: MSSQVVGIEPLYIKAEPASPDSPKGSSETETEPPVALAPGPAPTRCLPGHKEEEDGEGAGPGEQGGGKLVLSSLPKRLCLVCGDVASGYHYGVASCEACKAFFKRTIQGSIEYSCPASNECEITKRRRKACQACRFTKCLRVGMLKEGVRLDRVRGGRQKYKRRPEVDPLPFPGPFPAGPLAVAGGPRKTAAPVNALVSHLLVVEPEKLYAMPDPAGPDGHLPAVATLCDLFDREIVVTISWAKSIPGFSSLSLSDQMSVLQSVWMEVLVLGVAQRSLPLQDELAFAEDLVLDEEGARAAGLGELGAALLQLVRRLQALRLEREEYVLLKALALANSDSVHIEDAEAVEQLREALHEALLEYEAGRAGPGGGAERRRAGRLLLTLPLLRQTAGKVLAHFYGVKLEGKVPMHKLFLEMLEAMMD
B3: ENY2 (protein, UniProt Q9NPA8 1-101, looked up)
Transcription and mRNA export …: MVVSKMNKDAQMRAAINQKLIETGERERLKELLRAKLIECGWKDQLKAHCKEVIKEKGLEHVTVDDLVAEITPKGRALVPDSVKKELLQRIRTFLAQHASL
B4: ERCC3 (protein, UniProt P19447 1-782, looked up)
General transcription and DNA …: MGKRDRADRDKKKSRKRHYEDEEDDEEDAPGNDPQEAVPSAAGKQVDESGTKVDEYGAKDYRLQMPLKDDHTSRPLWVAPDGHIFLEAFSPVYKYAQDFLVAIAEPVCRPTHVHEYKLTAYSLYAAVSVGLQTSDITEYLRKLSKTGVPDGIMQFIKLCTVSYGKVKLVLKHNRYFVESCHPDVIQHLLQDPVIRECRLRNSEGEATELITETFTSKSAISKTAESSGGPSTSRVTDPQGKSDIPMDLFDFYEQMDKDEEEEEETQTVSFEVKQEMIEELQKRCIHLEYPLLAEYDFRNDSVNPDINIDLKPTAVLRPYQEKSLRKMFGNGRARSGVIVLPCGAGKSLVGVTAACTVRKRCLVLGNSAVSVEQWKAQFKMWSTIDDSQICRFTSDAKDKPIGCSVAISTYSMLGHTTKRSWEAERVMEWLKTQEWGLMILDEVHTIPAKMFRRVLTIVQAHCKLGLTATLVREDDKIVDLNFLIGPKLYEANWMELQNNGYIAKVQCAEVWCPMSPEFYREYVAIKTKKRILLYTMNPNKFRACQFLIKFHERRNDKIIVFADNVFALKEYAIRLNKPYIYGPTSQGERMQILQNFKHNPKINTIFISKVGDTSFDLPEANVLIQISSHGGSRRQEAQRLGRVLRAKKGMVAEEYNAFFYSLVSQDTQEMAYSTKRQRFLVDQGYSFKVITKLAGMEEEDLAFSTKEEQQQLLQKVLAATDLDAEEEVVAGEFGSRSSQASRRFGTMSSMSGADDTVYMEYHSSRSKAPSKHVHPLFKRFRK
B5: ERF (protein, UniProt P50548 1-548, looked up)
ETS domain-containing …: MKTPADTGFAFPDWAYKPESSPGSRQIQLWHFILELLRKEEYQGVIAWQGDYGEFVIKDPDEVARLWGVRKCKPQMNYDKLSRALRYYYNKRILHKTKGKRFTYKFNFNKLVLVNYPFIDVGLAGGAVPQSAPPVPSGGSHFRFPPSTPSEVLSPTEDPRSPPACSSSSSSLFSAVVARRLGRGSVSDCSDGTSELEEPLGEDPRARPPGPPDLGAFRGPPLARLPHDPGVFRVYPRPRGGPEPLSPFPVSPLAGPGSLLPPQLSPALPMTPTHLAYTPSPTLSPMYPSGGGGPSGSGGGSHFSFSPEDMKRYLQAHTQSVYNYHLSPRAFLHYPGLVVPQPQRPDKCPLPPMAPETPPVPSSASSSSSSSSSPFKFKLQPPPLGRRQRAAGEKAVAGADKSGGSAGGLAEGAGALAPPPPPPQIKVEPISEGESEEVEVTDISDEDEEDGEVFKTPRAPPAPPKPEPGEAPGASQCMPLKLRFKRRWSEDCRLEGGGGPAGGFEDEGEDKKVRGEGPGEAGGPLTPRRVSSDLQHATAQLSLEHRDS
B6: AES (protein, UniProt Q08117 1-197, looked up)
TLE family member 5: MMFPQSRHSGSSHLPQQLKFTTSDSCDRIKDEFQLLQAQYHSLKLECDKLASEKSEMQRHYVMYYEMSYGLNIEMHKQAEIVKRLNGICAQVLPYLSQEHQQQVLGAIERAKQVTAPELNSIIRQQLQAHQLSQLQALALPLTPLPVGLQPPSLPAVSAGTGLLSLSALGSQAHLSKEDKNGHDGDTHQEDDGEKSD
B7: ELF3 (protein, UniProt P78545 1-371, looked up)
ETS-related transcription …: MAATCEISNIFSNYFSAMYSSEDSTLASVPPAATFGADDLVLTLSNPQMSLEGTEKASWLGEQPQFWSKTQVLDWISYQVEKNKYDASAIDFSRCDMDGATLCNCALEELRLVFGPLGDQLHAQLRDLTSSSSDELSWIIELLEKDGMAFQEALDPGPFDQGSPFAQELLDDGQQASPYHPGSCGAGAPSPGSSDVSTAGTGASRSSHSSDSGGSDVDLDPTDGKLFPSDGFRDCKKGDPKHGKRKRGRPRKLSKEYWDCLEGKKSKHAPRGTHLWEFIRDILIHPELNEGLMKWENRHEGVFKFLRSEAVAQLWGQKKKNSNMTYEKLSRAMRYYYKREILERVDGRRLVYKFGKNSSGWKEEEVLQSRN
B8: EMX1 (protein, UniProt Q04741 1-290, looked up)
Homeobox protein EMX1: MCLAGCTPRKAAAPGRGALPRARLPRTAPAAATMFQPAAKRGFTIESLVAKDGGTGGGTGGGGAGSHLLAAAASEEPLRPTALNYPHPSAAEAAFVSGFPAAAAAGAGRSLYGGPELVFPEAMNHPALTVHPAHQLGASPLQPPHSFFGAQHRDPLHFYPWVLRNRFFGHRFQASDVPQDGLLLHGPFARKPKRIRTAFSPSQLLRLERAFEKNHYVVGAERKQLAGSLSLSETQVKVWFQNRRTKYKRQKLEEEGPESEQKKKGSHHINRWRIATKQANGEDIDVTSND
B9: ELK1 (protein, UniProt P19419 1-428, looked up)
ETS domain-containing protein …: MDPSVTLWQFLLQLLREQGNGHIISWTSRDGGEFKLVDAEEVARLWGLRKNKTNMNYDKLSRALRYYYDKNIIRKVSGQKFVYKFVSYPEVAGCSTEDCPPQPEVSVTSTMPNVAPAAIHAAPGDTVSGKPGTPKGAGMAGPGGLARSSRNEYMRSGLYSTFTIQSLQPQPPPHPRPAVVLPSAAPAGAAAPPSGSRSTSPSPLEACLEAEEAGLPLQVILTPPEAPNLKSEELNVEPGLGRALPPEVKVEGPKEELEVAGERGFVPETTKAEPEVPPQEGVPARLPAVVMDTAGQAGGHAASSPEISQPQKGRKPRDLELPLSPSLLGGPGPERTPGSGSGSGLQAPGPALTPSLLPTHTLTPVLLTPSSLPPSIHFWSTLSPIAPRSPAKLSFQFPSSGSAQVHIPSISVDGLSTPVVLSPGPQKP
B10: EN2 (protein, UniProt P19622 1-333, looked up)
Homeobox protein engrailed-2: MEENDPKPGEAAAAVEGQRQPESSPGGGSGGGGGSSPGEADTGRRRALMLPAVLQAPGNHQHPHRITNFFIDNILRPEFGRRKDAGTCCAGAGGGRGGGAGGEGGASGAEGGGGAGGSEQLLGSGSREPRQNPPCAPGAGGPLPAAGSDSPGDGEGGSKTLSLHGGAKKGGDPGGPLDGSLKARGLGGGDLSVSSDSDSSQAGANLGAQPMLWPAWVYCTRYSDRPSSGPRSRKPKKKNPNKEDKRPRTAFTAEQLQRLKAEFQTNRYLTEQRRQSLAQELSLNESQIKIWFQNKRAKIKKATGNKNTLAVHLMAQGLYNHSTTAKEGKSDSE

The experiment concerns HEK293FT cells transfected with TF library. The experiment is described as follows: Screening of TF condensates based on fluorescent puncta. In kind it is cell-based. The note with it: Figure 1B numerical data; TF library screen, one value per transcriptional factor. The method, then:
TF plasmids were automatically added to black-walled 384-well plates at 80 ng per well to reach a final concentration of 1.6 μg/ml. Polyethylenimine (PEI, Sigma) was then added to the plasmid-loaded plates at 240 ng per well (4.8 μg/ml). Subsequently, HEK293FT cells were seeded into the plate at 2000 cells per well. After 60 h, cells were cultured in medium with or without glucose for 12 h, and then fixed with 4% paraformaldehyde (PFA) at room temperature for 30 min. After three washes with PBS, fixed cells were permeabilized with 0.05% Triton X-100 for 15 min. Thereafter, cells were blocked with 5% BSA for 1 h, and then incubated overnight with anti-Flag (Sigma F3165, 1:200) and anti-GAL4 (Abbkine ABP57232, 1:200) primary antibodies at 4 °C. The cells were then gently washed with PBS, followed by being incubated with Alexa Fluor Plus 488 goat anti-mouse IgG secondary antibody (Thermo A32723, 1:400) or Alexa Fluor Plus 488 goat anti-rabbit IgG secondary antibody (Thermo A32731, 1:400) for 1 h. The plates were kept at 4 °C in the dark before being analyzed using an Opera System (Perkin Elmer). Fifty random fields per well were scanned and analyzed using the Columbus Plus Image Data Storage and Analysis System (Perkin Elmer).
B1: the “Z score of condensed fraction” value was -0.2404.

As for B2, the “Z score of condensed fraction” value turned out to be 0.7125.

For B3, the “Z score of condensed fraction” value is reported as -0.6608.

Take B4: the “Z score of condensed fraction” value is listed as -0.7686.

With B5, the “Z score of condensed fraction” value is -0.2253.

B6: the “Z score of condensed fraction” value was -0.7544.

Consider B7, for which the “Z score of condensed fraction” value is -0.7241.

As for B8, the “Z score of condensed fraction” value is reported as -0.9497.

For B9, the “Z score of condensed fraction” value is recorded as -0.5027.

As to B10, the “Z score of condensed fraction” value is recorded as 2.005.

The values above are taken from article PMC11574045, “A cofactor-induced repressive type of transcription factor condensation can be induced by synthetic peptides to suppress tumorigenesis” (The EMBO Journal, 2024).
